Measured values: IntAct's records for PubMed 19571008

B1: Non-homologous end-joining protein 1 (Saccharomyces cerevisiae), Q06148 (parent)
chain: MDSELKGQQLSDAEWCVKKINGEGNCLLLFLPMSSPTTIVMIVLVSLERLVPYVFKLSQTQLSQQCQSQGFTDSISLNLIKLKLMDILQAPQEINQIGLVDSNLVFSFDVSADITVSINSVPSHVTKDMFYMILQSLCMLLLKLVNLSTQYHYVQRDILNEKQKCLDFLLISLRDLDGGSKVISQWAPENSKNYESLQQCTDDDIIKKLLHKGKFQHQEFLADSLKTLLSLRNKFQDVSRFEESGELNKKERVRFPAVNHFYNDDFELQADPTNEARPNSRGKIKPKTDFKPKSRESSTSSQLRLENFSESEATPEKTKSSSSLVEEYPQKKRKFGKVRIKN

Variants of: B1
Settings: with srs2_yeast SRS2, P12954
Chain of srs2_yeast SRS2, P12954 (P12954 whole entry): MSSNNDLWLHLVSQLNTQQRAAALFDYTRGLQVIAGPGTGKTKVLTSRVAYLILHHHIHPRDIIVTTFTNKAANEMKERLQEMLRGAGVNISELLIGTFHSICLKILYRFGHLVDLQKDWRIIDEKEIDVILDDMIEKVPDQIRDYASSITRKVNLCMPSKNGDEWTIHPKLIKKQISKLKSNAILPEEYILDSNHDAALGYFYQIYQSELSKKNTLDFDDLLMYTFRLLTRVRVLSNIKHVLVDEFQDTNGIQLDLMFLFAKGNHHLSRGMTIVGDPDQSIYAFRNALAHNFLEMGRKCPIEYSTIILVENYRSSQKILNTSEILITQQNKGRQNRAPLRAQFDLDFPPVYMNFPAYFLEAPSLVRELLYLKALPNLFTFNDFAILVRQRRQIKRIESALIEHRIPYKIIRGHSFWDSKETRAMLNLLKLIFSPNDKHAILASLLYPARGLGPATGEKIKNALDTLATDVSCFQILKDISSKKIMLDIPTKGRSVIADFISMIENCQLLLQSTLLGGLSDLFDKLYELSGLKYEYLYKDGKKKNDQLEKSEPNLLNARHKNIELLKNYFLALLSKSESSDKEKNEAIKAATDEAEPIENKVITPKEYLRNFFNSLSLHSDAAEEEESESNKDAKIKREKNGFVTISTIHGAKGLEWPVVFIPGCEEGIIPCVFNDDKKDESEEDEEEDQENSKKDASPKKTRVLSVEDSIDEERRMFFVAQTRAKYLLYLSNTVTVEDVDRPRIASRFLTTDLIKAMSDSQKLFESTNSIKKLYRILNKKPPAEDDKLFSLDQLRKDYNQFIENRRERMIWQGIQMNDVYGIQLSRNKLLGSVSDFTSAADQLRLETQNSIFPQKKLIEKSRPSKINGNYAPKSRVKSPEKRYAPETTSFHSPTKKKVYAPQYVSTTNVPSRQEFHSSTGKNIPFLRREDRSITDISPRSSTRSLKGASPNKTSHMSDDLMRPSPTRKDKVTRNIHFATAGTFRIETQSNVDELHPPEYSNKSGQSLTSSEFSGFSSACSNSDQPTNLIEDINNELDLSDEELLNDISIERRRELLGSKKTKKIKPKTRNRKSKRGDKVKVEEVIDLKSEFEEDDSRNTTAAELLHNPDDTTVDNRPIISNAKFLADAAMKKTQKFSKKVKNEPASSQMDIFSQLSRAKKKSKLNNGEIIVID

effect of a mutation on the interaction	Variant
disrupting interaction	S297A
disrupting interaction	S297A;S298A
disrupting interaction	S298A
